Results as given in patent US8829175B2, “Nucleic acids encoding polyvalent protein complexes” (IBC Pharmaceuticals, Inc., priority 2003, dated 2014).

What was measured:
[1] = test system: human colonic tumor (GW-39) xenograft; test: Imaging of mice pre-targeted with hBS14 followed by 99mTc-IMP-245; assay type: in vivo, nude mice
Protocol: The experiment used 3 groups of 15 mice, each of which was necropsied, and 1 group of 5 mice that was imaged. Three groups of mice were administered 6 μCi ^125I-hBS14 (40 μg, 5.0×10^−10 moles). In the last group (imaging group), 3 mice received unlabeled hBS14. The amount of ^99mTc-IMP-245 administered to all the mice was ˜40 μCi (92 ng, 5.0×10^−11 moles) for a bispecific:peptide ratio of 10:1.
Animals 1 & 2 were given peptide only, while animals 3, 4, & 5 were administered hBS14 followed by peptide.

CEA = target: T1, CEA (Homo sapiens, UniProt P06731); test: SE-HPLC analysis of in vitro immunoreactivity with CEA; assay type: binding; conditions: 125I-labeled protein; complexes bound to either one or two CEAs
T1 sequence (P06731 35-676): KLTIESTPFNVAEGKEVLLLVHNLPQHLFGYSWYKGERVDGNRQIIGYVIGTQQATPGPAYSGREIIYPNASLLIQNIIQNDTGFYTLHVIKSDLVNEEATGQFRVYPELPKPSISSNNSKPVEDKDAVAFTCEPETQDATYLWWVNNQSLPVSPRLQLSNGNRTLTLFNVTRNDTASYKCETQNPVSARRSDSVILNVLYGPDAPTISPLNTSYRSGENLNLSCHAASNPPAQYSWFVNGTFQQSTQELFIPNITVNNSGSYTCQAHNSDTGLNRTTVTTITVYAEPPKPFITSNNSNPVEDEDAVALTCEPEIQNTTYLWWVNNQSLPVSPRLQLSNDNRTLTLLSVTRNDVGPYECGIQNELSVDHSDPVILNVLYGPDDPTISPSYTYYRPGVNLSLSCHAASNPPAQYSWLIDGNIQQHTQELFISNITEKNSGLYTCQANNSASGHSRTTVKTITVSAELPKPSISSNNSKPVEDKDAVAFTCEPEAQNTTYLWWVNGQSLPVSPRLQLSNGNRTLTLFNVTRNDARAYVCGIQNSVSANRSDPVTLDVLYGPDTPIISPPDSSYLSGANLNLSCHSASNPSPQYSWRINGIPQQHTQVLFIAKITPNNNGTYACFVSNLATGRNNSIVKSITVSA
Description: Confirmation that BS14HP has the ability to bind CEA bivalently was provided by SE-HPLC analysis of in vitro immunoreactivity. […] (FIG. 6B).

[2] = BIAcore binding to HSG immobilized on a sensorchip
Description: If the W12 binding is allowed to approach saturation, the stoichiometry of the binding can be determined. The additional increase in RU resulting from W12 binding was compared to the initial RU increase of the hBS14 upon binding to the HSG-sensorchip. As each increase in RU level is directly proportional to the mass bound, the WI2:bsAb molar binding ratio can be calculated using the formula (RUWI2/RUhBS14)×(MWhBS14/MWWI2). hBS14 was designed to be bivalent for CEA (and monovalent for HSG) and as such should bind W12 (also bivalent) with a 1:1 molar ratio. […] When equal concentrations of hBS14 were bound to an HSG-sensorchip, BIAcore sensorgrams are indistinguishable between lots derived from either SP2/0 or YB2/0 cells (FIG. 17).

B1: hBS14: bispecific trivalent heterodimer (hMN-14×hMN-14×679) expressed in myeloma cells, SEQ ID NO:11 and 12 (antibody)
heavy: MEVQLVESGGDLVKPGGSLKLSCAASGFTFSIYTMSWLRQTPGKGLEWVATLSGDGDDIYYPDSVKGRFTISRDNAKNSLYLQMNSLRAEDTALYYCARVRLGDWDFDVWGQGTTVSVSSGGGGSDIQLTQSPSSLSASVGDRVTITCKASQDVGTSVAWYQQKPGKAPKLLIYWTSTRHTGVPSRFSGSGSGTDFTFTISSLQPEDIATYYCQQYSLYRSFGQGTKVEIKRLEGGGSEVQLVESGGGVVQPGRSLRLSCSASGFDFTTYWMSWVRQAPGKGLEWIGEIHPDSSTINYAPSLKDRFTISRDNAKNTLFLQMDSLRPEDTGVYFCASLYFGFPWFAYWGQGTPVTVSVDHHHHHH
light: MDIQLTQSPSSLSASVGDRVTITCKASQDVGTSVAWYQQKPGKAPKLLIYWTSTRHTGVPSRFSGSGSGTDFTFTISSLQPEDIATYYCQQYSLYRSFGQGTKVEIKRGGGQFMEVQLVESGGGVVQPGRSLRLSCSASGFDFTTYWMSWVRQAPGKGLEWIGEIHPDSSTINYAPSLKDRFTISRDNAKNTLFLQMDSLRPEDTGVYFCASLYFGFPWFAYWGQGTPVTVSGGGGSDIVMTQSPSSLAVSPGERVTLTCKSSQSLFNSRTRKNYLGWYQQKPGQSPKLLIYWASTRESGVPDRFSGSGSGTDFTLTINSLQAEDVAVYYCTQVYYLCTFGAGTKLELKRLDHHHHHH
tumor visibility in images ([1]; 1 hr post-peptide administration, hBS14 48-hr clearance then 99mTc-IMP-245): clearly visible | location of signal in images ([1]; 24 hrs post-peptide administration, imaged for 20 minutes): only signal detected was located in the tumors | SE-HPLC peak shifts on mixing with increasing amounts of CEA (CEA): two distinct peak shifts | binding to immobilized HSG [2]: bound tightly
